Measurements published in article PMC7968844.
Like-named read-outs stand apart in the source and are kept apart here.

Row | Substance | degradation_or_half_life (O-GlcNAc at S554) | degradation_or_half_life (O-GlcNAc at T553)
1 | ERα: ERα-2M (T553A + S554A) in GREB1-KO cells | no change | no change
2 | ERα: GREB1-KO | decreases | decreases
